Test results: the supplement of paper PMC7125110
± gives the standard error. This sample holds only a part of the variants without activity.

B1: glmS ribozyme (parent)
chain: AUAAAAGCGCCAGAACUACAGAAAUGUAGUUGACGAGGAGGAGGUUUAUCGAAUUUUCGGCGGAUGCCUCCAAA

Variants of: B1
Assay: self-cleavage kobs at 10000 uM GlcN6P; higher = faster cleavage; RNA array
Conditions: with glucosamine-6-phosphate
In short: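 Tiles bearing barcoded ribozyme variants, transcribed in situ by E. coli RNA polymerase on sequenced MiSeq chips, were imaged over ~14 h at 37 °C using a hybridised Cy3 probe. Glucosamine-6-phosphate was supplied at 40 μM to 10 mM in HEPES/KCl/Mg(OAc)2 buffer. kobs came from one- or two-exponential decay fits to normalised per-tile medians, and weighted Michaelis–Menten fits then provided kcat and KM.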

Going from A24C G29C to G13U U54G C67U, the “self-cleavage kobs at 10000 uM GlcN6P” value falls from 0.00129 ± 0.00026 s⁻¹ to 0.000238 ± 4.9e-05 s⁻¹ (5.4-fold).

Compared with G13U G43U A64U, A14C C58U is higher in “self-cleavage kobs at 10000 uM GlcN6P” value: under 1e-05 s⁻¹ for the first, 8.12e-05 ± 1.2e-05 s⁻¹ for the second.

Compared with C16A U55A C67G, A15U U49A A52G is lower in “self-cleavage kobs at 10000 uM GlcN6P” value: 5.54e-05 ± 1.9e-05 s⁻¹ for the first, under 1e-05 s⁻¹ for the second.

Compared with A6C U56A C68G, A14G A33U A39U is higher in “self-cleavage kobs at 10000 uM GlcN6P” value: under 1e-05 s⁻¹ for the first, 4.23e-05 ± 1.4e-05 s⁻¹ for the second.

Compared with A6U G9U A52U, C16A G29A U46C is higher in “self-cleavage kobs at 10000 uM GlcN6P” value: under 1e-05 s⁻¹ for the first, 0.00011 ± 1.8e-05 s⁻¹ for the second.

G7U A15U C70G and A14G A42U A52G are within error of each other in “self-cleavage kobs at 10000 uM GlcN6P” value: 3.63e-05 ± 1.7e-05 s⁻¹ for the first, 6.3e-05 ± 1.1e-05 s⁻¹ for the second.

Compared with A12C C16U A52U, G29A A33C G41C C70U is lower in “self-cleavage kobs at 10000 uM GlcN6P” value: 0.000334 ± 6.5e-05 s⁻¹ for the first, under 1e-05 s⁻¹ for the second.

G9C G41U G43U C67G and A15C U30C G62U cannot be ordered by “self-cleavage kobs at 10000 uM GlcN6P” value: under 1e-05 s⁻¹ for the first, under 1e-05 s⁻¹ for the second.

Going from C16U A42U A52C to A15U C16U G29U C67A, the “self-cleavage kobs at 10000 uM GlcN6P” value rises from under 1e-05 s⁻¹ to 0.00151 ± 0.00034 s⁻¹.

G9U U30A U56G and A12U U30C G32A A52U U65G C70G cannot be ordered by “self-cleavage kobs at 10000 uM GlcN6P” value: under 1e-05 s⁻¹ for the first, under 1e-05 s⁻¹ for the second.

C10U G38U G63C C70U and G7C A14U C67U C68G cannot be ordered by “self-cleavage kobs at 10000 uM GlcN6P” value: under 1e-05 s⁻¹ for the first, under 1e-05 s⁻¹ for the second.

C16A G29A C50A G59A C71U and A6C C34A G37U cannot be ordered by “self-cleavage kobs at 10000 uM GlcN6P” value: under 1e-05 s⁻¹ for the first, under 1e-05 s⁻¹ for the second.

C11G G32U G41U G43U A52C C67A U69A and C16G A39U U47A C50G cannot be ordered by “self-cleavage kobs at 10000 uM GlcN6P” value: under 1e-05 s⁻¹ for the first, under 1e-05 s⁻¹ for the second.

Going from C16A U31C U55A to C10U G60U A64U, the “self-cleavage kobs at 10000 uM GlcN6P” value falls from 0.000194 ± 3.1e-05 s⁻¹ to under 1e-05 s⁻¹.

Going from A15G G66U C70A to A12U A15U U57G, the “self-cleavage kobs at 10000 uM GlcN6P” value falls from 8.77e-05 ± 1.7e-05 s⁻¹ to 3.38e-05 ± 1.4e-05 s⁻¹ (2.6-fold).

Going from C11U G32U C61G U69C to C8U G37C C50G A53U C67A, the “self-cleavage kobs at 10000 uM GlcN6P” value rises from 0.00014 ± 3.4e-05 s⁻¹ to 0.000441 ± 0.00011 s⁻¹ (3.2-fold).

Going from G13A G37A to G9U G59C G63C, the “self-cleavage kobs at 10000 uM GlcN6P” value falls from 4.89e-05 ± 1.1e-05 s⁻¹ to under 1e-05 s⁻¹.

Going from G9U U30A C71U to A6U U54C U55G, the “self-cleavage kobs at 10000 uM GlcN6P” value rises from under 1e-05 s⁻¹ to 0.000129 ± 3.3e-05 s⁻¹.

C11G G38U G41A C68G and C11U G32U U45G C61G cannot be ordered by “self-cleavage kobs at 10000 uM GlcN6P” value: under 1e-05 s⁻¹ for the first, under 1e-05 s⁻¹ for the second.

C10G G29A U65C and C8G G43A G44A C67A C70G cannot be ordered by “self-cleavage kobs at 10000 uM GlcN6P” value: under 1e-05 s⁻¹ for the first, under 1e-05 s⁻¹ for the second.

Going from C16A U49G to G9U A15U C34A C58G, the “self-cleavage kobs at 10000 uM GlcN6P” value falls from 2.8e-05 ± 1.1e-05 s⁻¹ to under 1e-05 s⁻¹.

A12C G60U C61U and C8A C11G A48U C67G C71A cannot be ordered by “self-cleavage kobs at 10000 uM GlcN6P” value: under 1e-05 s⁻¹ for the first, under 1e-05 s⁻¹ for the second.

C8G A42U U55G and G13A C34G A52C cannot be ordered by “self-cleavage kobs at 10000 uM GlcN6P” value: under 1e-05 s⁻¹ for the first, under 1e-05 s⁻¹ for the second.

Compared with G7A C16U, A12G A15U U31G is 5.5-fold higher in “self-cleavage kobs at 10000 uM GlcN6P” value: 2.32e-05 ± 1.2e-05 s⁻¹ for the first, 0.000128 ± 2.3e-05 s⁻¹ for the second.

Compared with A12C U56G C70G, A12U A64U C67U is 3.2-fold higher in “self-cleavage kobs at 10000 uM GlcN6P” value: 5.35e-05 ± 1.3e-05 s⁻¹ for the first, 0.00017 ± 3e-05 s⁻¹ for the second.

First: A18C A33C
Second: C10U A39C C61U C68G
The “self-cleavage kobs at 10000 uM GlcN6P” value of the first is higher: 0.000165 ± 4.4e-05 s⁻¹ for the first, under 1e-05 s⁻¹ for the second.

First: A6C U45C U69G
Second: C8U U54A U69A
The “self-cleavage kobs at 10000 uM GlcN6P” value of the first is lower: under 1e-05 s⁻¹ for the first, 0.00115 ± 0.00055 s⁻¹ for the second.

Compared with A12U A33C U47C C67G, A6U C16U U45A is higher in “self-cleavage kobs at 10000 uM GlcN6P” value: under 1e-05 s⁻¹ for the first, 0.000375 ± 6.6e-05 s⁻¹ for the second.

First: C10G G37A G60U
Second: A14G U56C U69C
The “self-cleavage kobs at 10000 uM GlcN6P” value of the first is lower: under 1e-05 s⁻¹ for the first, 0.000368 ± 9.1e-05 s⁻¹ for the second.

Going from C11A A12U A14C to G9A U30A C70A, the “self-cleavage kobs at 10000 uM GlcN6P” value falls from 8.7e-05 ± 1.9e-05 s⁻¹ to under 1e-05 s⁻¹.

A14C C50G G62U C67G and C11A C16A G66C C70G are within error of each other in “self-cleavage kobs at 10000 uM GlcN6P” value: 6.05e-05 ± 1.8e-05 s⁻¹ for the first, 6.24e-05 ± 2.5e-05 s⁻¹ for the second.

A6G A42U G59U and A14G A36C A42U cannot be ordered by “self-cleavage kobs at 10000 uM GlcN6P” value: under 1e-05 s⁻¹ for the first, under 1e-05 s⁻¹ for the second.

A14C A42G C61A and C16G A33G C58G cannot be ordered by “self-cleavage kobs at 10000 uM GlcN6P” value: under 1e-05 s⁻¹ for the first, under 1e-05 s⁻¹ for the second.

G7A G9C G40U and A6C C16U G38U U49G G51U G59C U65A cannot be ordered by “self-cleavage kobs at 10000 uM GlcN6P” value: under 1e-05 s⁻¹ for the first, under 1e-05 s⁻¹ for the second.

Going from C10A A36C C50U G59C to A15U G32C C71U, the “self-cleavage kobs at 10000 uM GlcN6P” value rises from under 1e-05 s⁻¹ to 8.58e-05 ± 2e-05 s⁻¹.

Going from C8A A36U C61G G66A to G13A C50G C70G, the “self-cleavage kobs at 10000 uM GlcN6P” value rises from under 1e-05 s⁻¹ to 9.61e-05 ± 2e-05 s⁻¹.

Going from A14U A53U C68U to A6G U30G C68G, the “self-cleavage kobs at 10000 uM GlcN6P” value falls from 0.00114 ± 0.00036 s⁻¹ to under 1e-05 s⁻¹.

A14U C34G C71U and C10G C61A G66U cannot be ordered by “self-cleavage kobs at 10000 uM GlcN6P” value: under 1e-05 s⁻¹ for the first, under 1e-05 s⁻¹ for the second.

Compared with C16G A42G C71U, G7U G26U A52C is lower in “self-cleavage kobs at 10000 uM GlcN6P” value: 0.00126 ± 0.00039 s⁻¹ for the first, under 1e-05 s⁻¹ for the second.

First: C16U G43C A64C C71G
Second: C16U U31A U45A
The “self-cleavage kobs at 10000 uM GlcN6P” value of the first is lower: under 1e-05 s⁻¹ for the first, 0.00606 ± 0.0026 s⁻¹ for the second.

First: G13U A39U C71U
Second: G9U C34U A36C G62C
The “self-cleavage kobs at 10000 uM GlcN6P” value of the first is higher: 0.000606 ± 0.00012 s⁻¹ for the first, under 1e-05 s⁻¹ for the second.

Compared with A14G G32C G40U A42G, A6C C8U G9C C67U is lower in “self-cleavage kobs at 10000 uM GlcN6P” value: 6.25e-05 ± 2.1e-05 s⁻¹ for the first, under 1e-05 s⁻¹ for the second.
